In PMC6023938, “Global pairwise RNA interaction landscapes reveal core features of protein recognition”:

Target: T1, TUT7 RNA-binding region (Homo sapiens, UniProt Q5VYS8 1362-1452)
T1 sequence: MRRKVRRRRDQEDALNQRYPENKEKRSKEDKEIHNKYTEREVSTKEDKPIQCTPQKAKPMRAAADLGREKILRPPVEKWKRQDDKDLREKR
Test: fluorescence polarization; FP: 45 mM Tris-HCl pH 8.0, 90 mM NaCl, 0.2% Tween-20, 22 C, 60 min, 30 ul
Settings: protein: recombinant; tags: GST fusion (expressed in BL21 codon plus); label: 5' Cy5

Question: Does GCAGUCUUAACGCUGCCUUA (ssRNA) [top scoring Hamiltonian sequence for TUT7] bind?
Answer: Result: binds
